{
  "source": "paper PMC9130890",
  "about": "(Advanced Science, 2022)",
  "binders": {"B1": {"name": "J038 (antibody, V domains shown)", "VH": "QLHLQESGPGLVRPSETLSLTCDVSGGAFNDAYCSWIRRFPGGGLEWIGRISGRDGYVESNPALTGRVTMSIDATWKKIVLRLTSMTASDTATYFCAGETPEDDFGYYQPYFKTWGQGLGVTVSS", "VL": "DIQLIQSPSSVSASLGDRVTITCRSTQGIGSDLAWYQATPGTAPKLLIYNSFALHKGVPSRFSGSGSGTEFSLTITGLQPEDFATYYCQHYRRLPLTFGGGTNIEVK"}},
  "key": {"HIV-1 BG505 Env trimer": {"molecular_target": "HIV-1 BG505 Env trimer (HIV-1 (strain BG505), UniProt Q2N0S6)"}, "[1]": {"molecular_target": "HIV-1 C1080 Env trimer, stabilized in the prefusion-closed state (HIV-1 (CRF01_AE strain C1080))"}},
  "data": [
    {"binder": "B1", "values": [
      {"measurement": "binding result", "setting": "HIV-1 BG505 Env trimer", "result": "binds"},
      {"measurement": "binding result", "setting": "[1]", "result": "binds"}
    ]}
  ]
}
